T1: human FcγRIIA_131H (CD32a) extracellular domain (human, UniProt P12318 34-217)
T1 construct: extracellular domain
T1 sequence (looked up): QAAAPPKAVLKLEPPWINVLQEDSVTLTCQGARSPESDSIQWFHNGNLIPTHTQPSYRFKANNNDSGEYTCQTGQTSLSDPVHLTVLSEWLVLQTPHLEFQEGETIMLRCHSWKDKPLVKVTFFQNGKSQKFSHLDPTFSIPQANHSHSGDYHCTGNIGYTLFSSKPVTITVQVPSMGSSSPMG

T2: Mouse LEPR-ECD-His (mouse, UniProt P48356 22-839)
T2 sequence: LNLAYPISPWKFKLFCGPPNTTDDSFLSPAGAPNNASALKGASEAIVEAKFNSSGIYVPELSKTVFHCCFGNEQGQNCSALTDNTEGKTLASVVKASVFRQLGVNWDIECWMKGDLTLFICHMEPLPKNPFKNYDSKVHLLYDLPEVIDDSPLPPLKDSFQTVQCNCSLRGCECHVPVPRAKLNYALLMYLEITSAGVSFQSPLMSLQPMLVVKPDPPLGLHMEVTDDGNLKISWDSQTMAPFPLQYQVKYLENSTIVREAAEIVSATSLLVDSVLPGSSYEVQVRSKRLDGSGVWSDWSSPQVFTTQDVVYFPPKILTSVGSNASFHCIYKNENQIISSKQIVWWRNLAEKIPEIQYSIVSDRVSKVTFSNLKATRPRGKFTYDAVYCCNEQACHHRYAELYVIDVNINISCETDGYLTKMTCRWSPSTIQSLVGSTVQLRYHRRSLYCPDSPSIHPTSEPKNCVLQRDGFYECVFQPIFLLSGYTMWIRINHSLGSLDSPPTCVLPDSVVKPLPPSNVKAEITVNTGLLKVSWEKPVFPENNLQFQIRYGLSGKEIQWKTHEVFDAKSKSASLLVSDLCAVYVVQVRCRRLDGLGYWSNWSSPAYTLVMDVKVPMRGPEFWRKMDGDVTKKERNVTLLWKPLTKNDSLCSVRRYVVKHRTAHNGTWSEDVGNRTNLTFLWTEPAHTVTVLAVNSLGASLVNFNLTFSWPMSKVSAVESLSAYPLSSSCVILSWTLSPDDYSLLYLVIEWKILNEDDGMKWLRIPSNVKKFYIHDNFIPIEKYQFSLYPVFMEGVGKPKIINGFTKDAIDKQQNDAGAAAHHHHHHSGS

T3: human LEPR-ECD-His (human, UniProt P48357 22-839)
T3 sequence: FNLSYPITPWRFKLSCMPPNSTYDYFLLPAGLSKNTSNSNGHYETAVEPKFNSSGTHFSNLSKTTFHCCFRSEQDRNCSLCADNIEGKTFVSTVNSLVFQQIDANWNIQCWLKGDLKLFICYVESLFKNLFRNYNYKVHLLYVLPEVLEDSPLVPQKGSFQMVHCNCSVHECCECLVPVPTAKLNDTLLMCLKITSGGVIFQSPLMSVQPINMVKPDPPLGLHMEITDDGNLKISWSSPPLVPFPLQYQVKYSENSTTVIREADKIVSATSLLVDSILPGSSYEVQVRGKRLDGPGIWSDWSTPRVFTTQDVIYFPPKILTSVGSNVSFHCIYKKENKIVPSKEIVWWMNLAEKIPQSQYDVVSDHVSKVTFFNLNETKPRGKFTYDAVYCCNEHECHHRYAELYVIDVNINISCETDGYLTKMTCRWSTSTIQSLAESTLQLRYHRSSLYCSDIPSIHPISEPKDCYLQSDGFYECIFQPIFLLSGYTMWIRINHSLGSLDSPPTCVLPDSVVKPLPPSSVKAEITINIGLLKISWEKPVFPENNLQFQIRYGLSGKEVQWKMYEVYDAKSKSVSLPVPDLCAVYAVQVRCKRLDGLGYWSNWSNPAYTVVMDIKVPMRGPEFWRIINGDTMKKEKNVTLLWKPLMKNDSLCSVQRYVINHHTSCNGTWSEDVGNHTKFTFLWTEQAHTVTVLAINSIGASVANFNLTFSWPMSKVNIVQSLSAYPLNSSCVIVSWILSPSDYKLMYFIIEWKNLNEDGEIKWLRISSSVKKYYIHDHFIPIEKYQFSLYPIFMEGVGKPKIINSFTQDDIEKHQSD


Key:
[1] = target: T1, human FcγRIIA_131H (CD32a) …; assay: SPR at 25 C, antibody captured on Protein A chip
Protocol: Briefly, the surfaces of all 4 flow cells were activated by injecting a 1:1 mixture of EDC/NHS for 7 minutes at 10 μL/minute. […] Un-reacted sites were blocked with a 7-minute injection of ethanolamine at 10 μL/minute. Injections of 2×10 μL of glycine pH 1.5 were used to remove any noncovalently associated protein.
For FcγRI binding, antibodies were diluted to 2.5 g/mL in running buffer (1x HBS-EP+, Teknova P/N H8022), and approximately 150 RU of each antibody was captured in flow cells 2 through 4 (RUcaptured). FC1 was the reference flow cell, therefore, no antibody was captured in FC1. […] Duplicate injections of each concentration were injected over all FCs at 40 μL/minute for 120 seconds followed by a 1200 second dissociation phase. Regeneration was performed by injecting 15 μL of 10 mM glycine pH 1.5 at 30 μL/minute over all FCs. Reference-subtracted data was collected as FC2-FC1, FC3-FC1, and FC4-FC1. The measurements were obtained at 25° C. The affinity (KD) was calculated using either steady state equilibrium analysis with the Scrubber 2 Biacore® Evaluation Software or a “1:1 (Langmuir) binding” model in BIA Evaluation.
For FcγRIIa, FcγRIIb, and FcγRIIIa binding, antibodies were diluted to 5 μg/mL in running buffer, and approximately 500 RU is captured in flow cells 2 through 4 (RUcaptured). FC1 is the reference flow cell. […] Duplicate injections of each concentration were injected over all FCs at 40 L/minute for 60 seconds followed by a 120 second dissociation phase. Regeneration was performed by injecting 15μL of 10 mM glycine pH 1.5 at 30 μL/minute over all FCs.

[2] = target: T4, Human C1q (MS Biomedical) (human, UniProt P02745 23-245; P02746 28-253; P02747 29-245); assay: C1q ELISA, plate coated with the antibody at 0.19-10 ug/mL, human C1q added at 10 ug/mL, sheep anti-human C1q-HRP detection, OD450
T4 construct: the three subunits are from general knowledge; also called complement component C1q; Clq
T4 sequence (P02745 23-245 limits assumed, chain 1 of 3): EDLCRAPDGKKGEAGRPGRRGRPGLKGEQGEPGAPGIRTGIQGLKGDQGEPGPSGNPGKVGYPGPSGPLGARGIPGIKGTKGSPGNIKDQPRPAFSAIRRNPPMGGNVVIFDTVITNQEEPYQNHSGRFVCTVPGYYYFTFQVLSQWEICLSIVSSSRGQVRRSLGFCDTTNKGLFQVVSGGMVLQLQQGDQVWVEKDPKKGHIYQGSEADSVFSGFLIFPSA
T4 sequence (P02746 28-253 limits assumed, chain 2 of 3): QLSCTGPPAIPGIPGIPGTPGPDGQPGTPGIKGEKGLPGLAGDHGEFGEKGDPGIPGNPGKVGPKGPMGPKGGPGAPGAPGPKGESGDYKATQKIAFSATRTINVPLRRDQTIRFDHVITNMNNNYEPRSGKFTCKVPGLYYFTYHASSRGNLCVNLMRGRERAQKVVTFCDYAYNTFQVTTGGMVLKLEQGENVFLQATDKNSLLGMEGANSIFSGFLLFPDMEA
T4 sequence (P02747 29-245 limits assumed, chain 3 of 3): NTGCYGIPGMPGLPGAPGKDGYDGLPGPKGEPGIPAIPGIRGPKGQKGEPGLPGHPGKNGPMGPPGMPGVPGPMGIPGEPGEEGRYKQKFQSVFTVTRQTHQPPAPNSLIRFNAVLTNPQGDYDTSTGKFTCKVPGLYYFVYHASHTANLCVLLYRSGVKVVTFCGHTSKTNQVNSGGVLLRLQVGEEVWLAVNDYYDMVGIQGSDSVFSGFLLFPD
Protocol: Testing was performed in duplicate wells. The plate was sealed and incubated overnight at 4° C. The coating reagent was removed from each well and 200 μL/well of casein blocking reagent (Thermo) was added. The plate was sealed and incubated for 2 hours at room temperature (RT). Each well was washed 3 times with wash buffer (1xTBE with 0.05% Tween 20). One hundred microliters per well of Human Clq (MS Biomedical) at 10 μg/mL diluted in casein blocking reagent was added and incubated for 3 hours at RT. The plate was then washed three times with wash buffer before 100 L/well of a 1:800 dilution of Sheep anti-human C1q-HRP (Abcam #ab46191) in casein blocker was added and incubated for 1 hour at RT. The plate was washed 6 times with wash buffer, and 100 μL/well of TMB Substrate (Pierce) was added to each well and incubated for 7 minutes. One hundred microliters of 1 N HCl was added to each well to stop the reaction.

Mouse LEPR-ECD-His = target: T2, Mouse LEPR-ECD-His; assay: SPR (Biacore T200), antibody captured on Protein A/G chip, n = 1
Protocol: (§1) His-tagged ECDs were expressed and purified for each species and used for affinity analysis. A Protein A/G chip (Xantec, Cat #PAGHC200M) was utilized in this experiment with HBS-EP +0.01% BSA as running buffer. Antibodies were diluted to 1 μg/mL in running buffer and captured to a single flow cell on the chip surface. Each species of LEPR-ECD was diluted to 1000 nM in running buffer followed by 2-fold serial dilution. Each ligand concentration was injected over all flow cells at 100 L/min for 150 seconds followed by a 600 second dissociation phase. Regeneration was performed by injecting 10 mM glycine pH1.5 for 30 seconds at 10 μL/min. Data were analyzed in Biacore T200 Evaluation Software 3.1 by flow-cell 1 reference subtraction along with 0 nM blank subtraction. Data were fit globally using a “1:1 Binding” binding model to determine the on-rate (kₐ) and off-rate (kd) for each ligand. The affinity (KD) was calculated from the binding kinetics according to the relationship KD=kₐ/kd. Data reported as mean±standard deviation of experimental replicates.

human LEPR-ECD-His = target: T3, human LEPR-ECD-His; assay: SPR (Biacore T200), antibody captured on Protein A/G chip, His-tagged LEPR-ECD as analyte, 1:1 fit; mean n=3, SD 7.1E-9
Protocol: as §1

Row | binding result [2] | Kd (human LEPR-ECD-His) | Binder | binding result [1] | binding result (Mouse LEPR-ECD-His)
1 | no binding (tested: 10 ug/ml) |  | Antibody A (antibody, human IgG1, kappa, L234A L235A, IgG1 mAb) heavy: EVQLLESGGGLVQPGGSLRLSCAASGFTFSSFAMSWVRQAPGKGLEWVSAISGSGGSTYSADSVRGRFTISRDNSKNTLYLQMNSLRAEDTAVYYCAKDQGDWDFLFDYWGQGTLVTVSSASTKGPSVFPLAPSSKSTSGGTAALGCLVKDYFPEPVTVSWNSGALTSGVHTFPAVLQSSGLYSLSSVVTVPSSSLGTQTYICNVNHKPSNTKVDKRVEPKSCDKTHTCPPCPAPEAAGGPSVFLFPPKPKDTLYITREPEVTCVVVSVSHEDPEVKFNWYVDGVEVHNAKTKPREEQYNSTYRVVSVLTVLHQDWLNGKEYKCKVSNKALPAPIEKTISKAKGQPREPQVYTLPPSREEMTKNQVSLTCLVKGFYPSDIAVEWESNGQPENNYKTTPPVLDSDGSFFLYSKLTVDKSRWQQGNVFSCSVMHEALHNHYTQKSLSLSPGK light: DIQMTQSPSFLSASVGDRVTITCRASQGISSSLAWYQQKPGKAPKLLIYTASTLQSGVPSRFSGSGSGTEFTLTISSLQPEDFATYYCQQLIYYPFTFGQGTKVEIKRTVAAPSVFIFPPSDEQLKSGTASVVCLLNNFYPREAKVQWKVDNALQSGNSQESVTEQDSKDSTYSLSSTLTLSKADYEKHKVYACEVTHQGLSSPVTKSFNRGEC | no binding (tested: receptor ECD tested up to 10 µM) | 
2 |  | 26 nM | Antibody C (antibody, human IgG1, kappa, L234A L235A, V domains shown) VH: EVQLLESGGGLVQPGGSLRLSCAASGFTFSSFAMSWVRQAPGKGLEWVSAISGSGGSTYSADSVRGRFTISRDNSKNTLYLQMNSLRAEDTAVYYCAKDQGDWDFLFDYWGQGTLVTVSS VL: DIQMTQSPSFLSASVGDRVTITCRASQGISSSLAWYQQKPGKAPKLLIYTASTLQSGVPSRFSGSGSGTEFTLTISSLQPEDFATYYCQQLNYYPFSFGQGTKVEIKR |  | no binding (tested: LEPR-ECD tested up to 1000 nM)
